# According to paper PMC4259810:
# Columns and labels:
# [1] = molecular target: DLC1 Rho-GAP domain, 609-878 (UniProt Q96QB1); assay: GST pull-down from cotransfected cells, GFP blot; details: sites S120,S205,S422,S509
# DLC1 500-1,091 = DLC1 500-1,091 (UniProt Q96QB1); assay: GST pull-down from cotransfected cells, GFP blot; details: reference: GST-(1–550)-WT; sites S120,S205,S422,S509
binding against the reference ([1]; reference: GST-DLC1(80–550)-WT),"binding against the reference (DLC1 500-1,091)",binding against the reference ([1]; reference: GST-(1–550)-WT),Substance
stronger,–,–,DLC1 80-550 (from UniProt Q96QB1-1) GST-DLC1(80–550)-4A
–,stronger,stronger,DLC1 1-550 (from UniProt Q96QB1-1) GST-(1–550)-4A
